The data set concerns the target DNA polymerase beta (pol beta), [13CH3-Met,13CH3-Ile] labelled (UniProt P06746 1-335). Put plainly: NMR 1H-13C HMQC chemical shift perturbation, methyl-TROSY CPMG; binary complex; 5 mM MgCl2; ~175 uM pol beta, 10% excess DNA; D2O buffer: 50 mM Tris-d11 pH 7.6, 150 mM KCl, 5 mM MgCl2 (none for apoenzyme), 1 mM CDTA, 1 mM DTT, 0.1 mM AEBSF, 0.04% NaN3, 50 uM DSS; 35 C for assignment of.

The values that follow come from publication PMC6101544.

For the molecule GGCGAAGCCTGGTGCGAAGCACC (structured_DNA) [1-nt-gapped double hairpin DNA (templating dT in gap)], the binding result is listed as “binds”.
